Columns and labels:
[1] = target: Cx. quinquefasciatus BBMV (brush border membrane vesicles of Culex quinquefasciatus larvae; toxin receptors on them not identified) (Culex quinquefasciatus); experiment: saturation binding of 125I-toxin to BBMV, Hill fit; design: Bmax: unit not given here
[2] = target: Cx. quinquefasciatus BBMV (brush border membrane vesicles of Culex quinquefasciatus larvae; toxin receptors on them not identified) (Culex quinquefasciatus); experiment: saturation binding of 125I-toxin to BBMV, Hill fit (repeats Table 3); design: Bmax: unit not given here
[3] = target: Ae. aegypti BBMV (brush border membrane vesicles of Aedes aegypti larvae; toxin receptors on them not identified) (Aedes aegypti); experiment: saturation binding of 125I-toxin to BBMV, Hill fit
[4] = target: An. quadrimaculatus BBMV (brush border membrane vesicles of Anopheles quadrimaculatus larvae; toxin receptors on them not identified) (Anopheles quadrimaculatus); experiment: saturation binding of 125I-toxin to BBMV, Hill fit
[5] = target: Cx. quinquefasciatus BBMV (brush border membrane vesicles of Culex quinquefasciatus larvae; toxin receptors on them not identified) (Culex quinquefasciatus); experiment: saturation binding of 125I-toxin to BBMV, Hill fit

Binder | Bmax [1] | K′D (composite dissociation constant) [1] | Bmax [2] | K′D (composite dissociation constant) [2] | Bmax [3] | K′D (composite dissociation constant) [3] | Bmax [4] | K′D (composite dissociation constant) [4] | Bmax [5] | K′D (composite dissociation constant) [5]
4BL3PAT (4BRA with D454 replaced with P and AT inserted after position 454, loop 3 of domain II) (protein, 125I-iodinated (iodo-bead, sites not stated) where used as labelled toxin) AINSSSVSTALKVAGAILKFVNPPAGTVLTVLSAVLPILWPTNTPTPERVWNDFMTNTGNLIDQTVTAYVRTDANAKMTVVKDYLDQYTTKFNTWKREPNNQSYRTAVITQFNLTSAKLRETAVYFSNLVGYELLLLPIYAQVANFNLLLIRDGLINAQEWSLAASAGDQLYNTMVQYTKEYIAHSITWYNKGLDVLRNKSNGQWITFNDYKREMTIQVLDILALFASYDPRRYPADKIDNTKLSKTEFTREIYTALVESPSSKSIAALEAALTRDVHLFTWLKRVDFWTNTIYQDLRFLSANKIGFSYTNSSAMQESGIYGSSGFGSNLTHQIQLNSNVYKTSITDTSSPSNRVTKMDFYKIDGTLASYNSNITPTPEGLRTTFFGFSTNENTPNQPTVNDYTHILSYIKTDVIPATYNSNRVSFAWTHKIVDPNNQIYTDAITQVPAVKSNFLNATAKVIKGPGHTGGDLVALTSNGTLSGRMEIQCKTSIFNDPTRSYGLRIRYAANSPIVLNVSYVLQGVSRGTTISTESTFSRPNNIIPTDLKYEEFRYKDPFDAIVPMRLSSNQLITIAIQPLNMTSNNQVIIDRIEIIPITQSVLDET | 9.3 | 0.9 nM |  |  |  |  |  |  |  | 
4BRA (Cry4Ba with R203 mutated to A, trypsin-activated toxin) (protein, 125I-iodinated (iodo-bead, sites not stated) where used as labelled toxin) AINSSSVSTALKVAGAILKFVNPPAGTVLTVLSAVLPILWPTNTPTPERVWNDFMTNTGNLIDQTVTAYVRTDANAKMTVVKDYLDQYTTKFNTWKREPNNQSYRTAVITQFNLTSAKLRETAVYFSNLVGYELLLLPIYAQVANFNLLLIRDGLINAQEWSLAASAGDQLYNTMVQYTKEYIAHSITWYNKGLDVLRNKSNGQWITFNDYKREMTIQVLDILALFASYDPRRYPADKIDNTKLSKTEFTREIYTALVESPSSKSIAALEAALTRDVHLFTWLKRVDFWTNTIYQDLRFLSANKIGFSYTNSSAMQESGIYGSSGFGSNLTHQIQLNSNVYKTSITDTSSPSNRVTKMDFYKIDGTLASYNSNITPTPEGLRTTFFGFSTNENTPNQPTVNDYTHILSYIKTDVIDYNSNRVSFAWTHKIVDPNNQIYTDAITQVPAVKSNFLNATAKVIKGPGHTGGDLVALTSNGTLSGRMEIQCKTSIFNDPTRSYGLRIRYAANSPIVLNVSYVLQGVSRGTTISTESTFSRPNNIIPTDLKYEEFRYKDPFDAIVPMRLSSNQLITIAIQPLNMTSNNQVIIDRIEIIPITQSVLDET |  |  | 13.1 | 6.9 nM | 17.2 fmol/µg | 0.5 nM | 35.2 fmol/µg | 3.1 nM | 13.1 fmol/µg | 6.9 nM
